Data: patent publication US20200277373A1 (DENALI THERAPEUTICS, published 2020)

T1: Human TREM2 protein, on cells (human, UniProt Q9NZC2 19-230)
T1 sequence: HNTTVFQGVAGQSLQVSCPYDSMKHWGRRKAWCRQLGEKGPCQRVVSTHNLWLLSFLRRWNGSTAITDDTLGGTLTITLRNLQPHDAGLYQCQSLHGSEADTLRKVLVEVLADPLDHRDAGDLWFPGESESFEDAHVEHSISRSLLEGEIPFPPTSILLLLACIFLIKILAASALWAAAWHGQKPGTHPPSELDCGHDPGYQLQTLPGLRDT

T2: Mouse TREM2, on cells (mouse, UniProt Q99NH8 19-227)
T2 construct: whole, on cells; also called mouse TREM2 HEK
T2 sequence (looked up): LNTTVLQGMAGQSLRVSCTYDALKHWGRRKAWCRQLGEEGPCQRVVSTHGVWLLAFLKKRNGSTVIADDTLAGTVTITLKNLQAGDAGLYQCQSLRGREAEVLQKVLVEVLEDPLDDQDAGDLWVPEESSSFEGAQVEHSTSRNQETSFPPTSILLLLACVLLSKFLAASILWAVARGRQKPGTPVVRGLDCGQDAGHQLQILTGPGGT

T3: His-tagged TREM2 ECD (ecto domain residues 19-172 of human TREM2, C-terminal 6X-His tag) (human, UniProt Q9NZC2 19-172)
T3 construct: Made in Expi293F cells; the mouse Ig kappa secretion signal is not part of the mature protein; Biotinylated for the Octet binning; also called TREM2-His; TREM2-His protein
T3 sequence: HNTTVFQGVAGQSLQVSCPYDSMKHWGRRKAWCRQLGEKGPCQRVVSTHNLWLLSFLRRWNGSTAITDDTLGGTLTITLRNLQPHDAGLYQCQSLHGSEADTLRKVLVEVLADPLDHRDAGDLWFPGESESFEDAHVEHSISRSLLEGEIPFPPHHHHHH

T4: Human TREM2 synthetic 9-mer peptide DLWFPGESE (human)
T4 construct: also called TREM2 peptide; TREM2 9-mer peptide
T4 peptide: DLWFPGESE


Experiments:
[1] = biological target: T1, Human TREM2 protein, on cells; assay: cell-based or functional assay
[2] = biological target: T1, Human TREM2 protein, on cells; assay: cell-based or functional assay; remark: listed apart in the source
[3] = biological target: T1, Human TREM2 protein, on cells; assay: flow cytometry titration on hTREM2-HEK cells
Source text: (§1) FIGS. 1A-1D. […] (A) Anti-TREM2 antibodies were screened for binding to HEK cells expressing human TREM2 (unlabeled) and mouse TREM2 HEK expressing cells (labeled with NucBlue). Antibody binding was detected with a secondary anti-mouse multiple adsorption antibody conjugated to APC. […] (B) Parental HEK-GFP cells were used as a negative control to rule out non-specific binding. (C) Anti-TREM2 antibody surface binding dose response in hTREM2-HEK cells. Anti-TREM2 antibodies were titrated for binding to HEK cells expressing human TREM2. Antibody binding was detected with a secondary anti-mouse multiple adsorption antibody conjugated to APC. […] Mouse TREM2 HEK cells were titrated for binding as in (C).
(§2) After labeling, cells were washed twice with 1×PBS. […] Mixed cell lines were seeded at 300,000 cells per well in a 96-well round-bottom and incubated 20 minutes at room temperature. After incubation, cells were centrifuged and test anti-TREM2 antibodies were added, then incubated for 45 minutes on ice. After incubation, cells were centrifuged and washed with FACS buffer three times.

[4] = biological target: T2, Mouse TREM2, on cells; assay: flow cytometry titration on mTREM2-293F cells
Source text: as §1, §2

[5] = biological target: T3, His-tagged TREM2 ECD (ecto domain …); assay: Table 1 Kd; Biacore, TREM2-His analyte (presumed)
Procedure: Anti-murine Fc antibody (obtained from GE Healthcare) was immobilized on the surface of a CM5 chip (obtained from GE Healthcare) through amine-coupling to reach about 6,000 to 8,000 response units (RU). The surface was activated by injection of a mixture of 1-ethyl-3-(3-dimethylaminopropyl)-carbodiimide (EDC) and N-hydroxysuccinimide (NHS), both obtained from GE Healthcare, for 7 minutes. Anti-murine Fc antibody was diluted in sodium acetate (pH 5.0) at 25 μg/mL and injected for 10 minutes at a flow rate of 5 μL/minute, followed by injection of ethanolamine (obtained from GE Healthcare) for 7 minutes.
Purified anti-TREM2 hybridoma (20 μg/mL) was captured to reach 1000-1500 RU. A range of serially-diluted TREM2-His protein (e.g., 3.4 nM to 300 nM) was injected at a flow rate of 30 μL/minute, using either single-cycle kinetics methods. Sensorgrams were fitted using a 1:1 Langmuir model to estimate kₒₙ and koff.

[6] = biological target: T2, Mouse TREM2, on cells; assay: flow cytometry, 293F cells overexpressing mouse TREM2
Procedure: as §2
(§3) The data in Table 2 is presented as fold over binding (FOB).

[7] = biological target: T1, Human TREM2 protein, on cells; assay: flow cytometry, HEK293 cells overexpressing human TREM2
Procedure: as §2, §3

[8] = biological target: T3, His-tagged TREM2 ECD (ecto domain …); assay: Biacore T200, antibody captured, antigen injected, 1:1 model
Procedure: (§4) To measure TfR binding, anti-human-Fab was immobilized on a CM5 chip, and the TREM2/TfR-binding protein was captured. Full-length human TfR or human TfR apical domain at serial dilution (e.g., concentrations of 1-1000 nM) was flowed over the chip (180 second association time) and then allowed to dissociate. Fitting was performed using a 1:1 binding model. To measure TREM2 binding, anti-human-Fc antibody was immobilized on a CM5 chip, and the TREM2/TfR-binding protein was captured. A range of concentrations of recombinant TREM2-His protein were flowed over the chip, and allowed to associate and dissociate. The resulting sensograms were fitted using a 1:1 Langmuir model to estimate kₒₙ and koff (FIG. 10).
(§5) Biacore Series S CM5 sensor chips were immobilized with a mixture of two monoclonal mouse anti-Fab antibodies (Human Fab capture kit from GE Healthcare). Serial 3-fold dilutions of each antigen were injected at a flow rate of 30 μL/min. The binding of the antigens to captured antibody was monitored for 30 to 180 seconds and then their dissociation was monitored for 30-300 seconds in HBS-EP+running buffer (GE, # BR100669). Binding response was corrected by subtracting the RU from a blank flow cell. A 1:1 Languir model of simultaneous fitting of kₒₙ and koff was used for kinetics analysis.

[9] = biological target: T1, Human TREM2 protein, on cells; assay: cell binding, human TREM2-expressing HEK cells, flow cytometry titration
[10] = biological target: T5, Human transferrin receptor apical domain (human, UniProt P02786 198-378, limits assumed); assay: Biacore T200, antibody captured, antigen injected, 1:1 model
T5 construct: also called hTfR apical domain; TfR apical domain
Procedure: as §4, §5

[11] = biological target: T4, Human TREM2 synthetic 9-mer peptide …; assay: X-ray co-crystal structure
Source text: The synthetic 9-mer peptide […] (SEQ ID NO:335), corresponding to amino acid residues 140-148 of human TREM2 (according to UniProtKB entry TREM2_HUMAN) was used for co-crystallization.

[12] = biological target: T2, Mouse TREM2, on cells; assay: Table 5, cell binding: Mouse TREM2 HEK

T5 sequence (P02786 198-378 limits assumed): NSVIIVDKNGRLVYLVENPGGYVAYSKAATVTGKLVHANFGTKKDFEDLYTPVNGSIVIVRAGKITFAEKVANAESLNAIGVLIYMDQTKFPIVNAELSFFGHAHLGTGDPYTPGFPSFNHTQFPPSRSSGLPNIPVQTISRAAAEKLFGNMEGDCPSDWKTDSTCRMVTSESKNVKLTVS

Binder | pSyk FOB (30 nM Ab) [1] | STREM2 decrease (nM), EC50 [2] | pSyk (nM), EC50 [2] | EC50 [3] | EC50 [4] | Kd [5] | FOB (fold over binding) [6] | FOB (fold over binding) [7] | Kd [8] | koff [8] | kon [8] | EC50 [9] | Kd [10] | koff [10] | kon [10] | binding result [11] | binding result [12]
RS9.F6 (antibody, V domains shown) VH: QVQLQQPGAELVKPGASVKLSCKASGYTFTSYWMHWVKQSPGRGLEWIGRSDPTTGGTNYNEKFKTKATLTVDKPSSTAYMQLSSLTSDDSAVYYCVRTSGTGDYWGQGTSLTVSS VL: DVVMTQTPLSLPVSLGDQASISCRSSQSLVHNNGNTFLHWYLQKPGQSPKLLIYKVSNRFSGVPDRFSGSGSGTDFTLKISRVEAEDLGVYFCSQTTHVPPTFGGGTKLEIK | 8.49 fold over background | 0.3 nM | 15.9 nM | < 2 nM | < 8 nM | 0.733 nM | 73 fold | 13.2 fold | 2.3 nM | 0.00034 s⁻¹ | 150000 M⁻¹ s⁻¹ | 1.62 nM |  |  |  |  | 
RS9.F10 (antibody, V domains shown, same entries as RS9.F6; also called RS.F10) VH: QVQLQQPGAELVKPGASVKLSCKASGYTFTSYWMHWVKQSPGRGLEWIGRSDPTTGGTNYNEKFKTKATLTVDKPSSTAYMQLSSLTSDDSAVYYCVRTSGTGDYWGQGTSLTVSS VL: DVVMTQTPLSLPVSLGDQASISCRSSQSLVHNNGNTFLHWYLQKPGQSPKLLIYKVSNRFSGVPDRFSGSGSGTDFTLKISRVEAEDLGVYFCSQTTHVPPTFGGGTKLEIK | 9.89 fold over background |  | 20.5 nM | < 2 nM | < 8 nM | 0.852 nM | 75.8 fold | 12.9 fold |  |  |  | 1.54 nM |  |  |  |  | 
F6 Fab (Fab fragment of anti-TREM2 antibody RS9.F6) (Fab, V domains shown, Fab expressed in Expi-293 cells; also called TREM2 Fab) VH: QVQLQQPGAELVKPGASVKLSCKASGYTFTSYWMHWVKQSPGRGLEWIGRSDPTTGGTNYNEKFKTKATLTVDKPSSTAYMQLSSLTSDDSAVYYCVRTSGTGDYWGQGTSLTVSS VL: DVVMTQTPLSLPVSLGDQASISCRSSQSLVHNNGNTFLHWYLQKPGQSPKLLIYKVSNRFSGVPDRFSGSGSGTDFTLKISRVEAEDLGVYFCSQTTHVPPTFGGGTKLEIK |  |  |  |  |  |  |  |  |  |  |  |  |  |  |  | binds | 
24B4.A1 (antibody, V domains shown, Mouse hybridoma antibody, Ig2a, k; same entries as 26E2.A3; also called RS8.24B4.A1) VH: QVHLQQSGSELRSPGSSVKLSCKDFDSEVFPISYMSWIRQKPGHGFEWIGDILPSIGGRIYGVKFEDRATLDADTVSNTAYLELNSLTSEDSAIYYCARKDYGSLAYWGQGTLVTVSA VL: DVVMTQTPLSLPVSLGDQASISCRSSQSLVHINGNTYLQWFLQKPGQSPKLLIYKVSNRFSGVPDRFSGSGSGTAFTLKISRVEAEDLGVYFCSQSTHVPYTFGGGTKLEIK | 17.3 fold over background |  | 49.8 nM |  |  | 12.4 nM | 1.5 fold | 8.6 fold |  |  |  | 7.5 nM |  |  |  |  | no binding

Continued, values first:

pSyk FOB (30 nM Ab) [1] | STREM2 decrease (nM), EC50 [2] | pSyk (nM), EC50 [2] | EC50 [3] | EC50 [4] | Kd [5] | FOB (fold over binding) [6] | FOB (fold over binding) [7] | Kd [8] | koff [8] | kon [8] | EC50 [9] | Kd [10] | koff [10] | kon [10] | binding result [11] | binding result [12] | Binder
 |  |  |  |  |  |  |  | 2.6 nM | 0.00038 s⁻¹ | 150000 M⁻¹ s⁻¹ |  | 110 nM | 0.19 s⁻¹ | 1.7e+06 M⁻¹ s⁻¹ |  |  | RS9.F6/3C.35.21.17 (bispecific antibody, human IgG1, L234A L235A, second: RS9.F6 Fd on Fc with LALAPG and hole mutations; Vectors co-transfected 1:1:2; also called RS9.F6/3C35.21.17_LALAPG; ATV-Anti-TREM2) heavy 1: QVQLQQPGAELVKPGASVKLSCKASGYTFTSYWMHWVKQSPGRGLEWIGRSDPTTGGTNYNEKFKTKATLTVDKPSSTAYMQLSSLTSDDSAVYYCVRTSGTGDYWGQGTSLTVSSASTKGPSVFPLAPSSKSTSGGTAALGCLVKDYFPEPVTVSWNSGALTSGVHTFPAVLQSSGLYSLSSVVTVPSSSLGTQTYICNVNHKPSNTKVDKKVEPKSCDKTHTCPPCPAPEAAGGPSVFLFPPKPKDTLMISRTPEVTCVVVDVSHEDPEVKFNWYVDGVEVHNAKTKPREEQYNSTYRVVSVLTVLHQDWLNGKEYKCKVSNKALGAPIEKTISKAKGQPREPQVYTLPPSRDELTKNQVSLWCLVKGFYPSDIAVLWESYGTEWASYKTTPPVLDSDGSFFLYSKLTVTKEEWQQGFVFSCSVMHEALHNHYTQKSLSLSPGK heavy 2: QVQLQQPGAELVKPGASVKLSCKASGYTFTSYWMHWVKQSPGRGLEWIGRSDPTTGGTNYNEKFKTKATLTVDKPSSTAYMQLSSLTSDDSAVYYCVRTSGTGDYWGQGTSLTVSSASTKGPSVFPLAPSSKSTSGGTAALGCLVKDYFPEPVTVSWNSGALTSGVHTFPAVLQSSGLYSLSSVVTVPSSSLGTQTYICNVNHKPSNTKVDKKVEPKSCDKTHTCPPCPAPEAAGGPSVFLFPPKPKDTLMISRTPEVTCVVVDVSHEDPEVKFNWYVDGVEVHNAKTKPREEQYNSTYRVVSVLTVLHQDWLNGKEYKCKVSNKALGAPIEKTISKAKGQPREPQVYTLPPSRDELTKNQVSLSCAVKGFYPSDIAVEWESNGQPENNYKTTPPVLDSDGSFFLVSKLTVDKSRWQQGNVFSCSVMHEALHNHYTQKSLSLSPGK light: DVVMTQTPLSLPVSLGDQASISCRSSQSLVHNNGNTFLHWYLQKPGQSPKLLIYKVSNRFSGVPDRFSGSGSGTDFTLKISRVEAEDLGVYFCSQTTHVPPTFGGGTKLEIK
6.56 fold over background |  | 456 nM |  |  | 2.19 nM | 1.7 fold | 12.8 fold |  |  |  | 4.09 nM |  |  |  |  | no binding | 54C2.A1 (antibody, V domains shown, Mouse hybridoma antibody, Ig2b, k; also called RS8.54C2.A1) VH: QVHLQQSGSELRSPGSSVKLSCKDFDSEVFPIAYMSWVRQKPGHGFEWIGDILPSIGRRIYGVKFEDKATLDADTVSNTAYLELNSLTSEDSAIYYCTRKDYGSLAYWGQGTLVTVSA VL: DVVMTQTPLSLPVSLGDQASISCRSSQSLVHINGNTYLQWYLQKPGQSPKLLIYKVSNRFSGVPDRFSGSGSGTDFTLRISRVEAEDLGVYFCSQSTHLPYTFGGGTKLEIK
